Test results from IntAct's records for PubMed 30245403.

Target: T1, prdx2_human PRDX2 (UniProt P32119)
T1 sequence: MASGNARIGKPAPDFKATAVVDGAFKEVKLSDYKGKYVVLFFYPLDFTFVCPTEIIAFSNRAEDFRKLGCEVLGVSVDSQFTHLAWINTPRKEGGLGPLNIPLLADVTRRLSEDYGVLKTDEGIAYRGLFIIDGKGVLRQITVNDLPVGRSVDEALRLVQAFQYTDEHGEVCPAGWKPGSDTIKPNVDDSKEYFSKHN

effect of a mutation on the interaction | Substance
with no effect | "DNA (cytosine-5)-methyltransferase 3A" (Homo sapiens) (from UniProt Q9Y6K1) R882C
increasing interaction strength | "DNA (cytosine-5)-methyltransferase 3A" (Homo sapiens) (from UniProt Q9Y6K1) R882H
